Substrate in the data set: Nc1ncnc2c1ncn2[C@@H]1O[C@H](COP(=O)(O)OP(=O)(O)OP(=O)(O)O)[C@@H](O)[C@H]1O
Nature of the data set: purified protein. Conditions: 1 mM KCl, 37 °C.

By Km is commonly meant the substrate concentration at which the rate is half of its maximum.

Residue numbers refer to the chain shown, from its start. Names and notes keep the numbering of the source.

B1: KdpFABC (nucleotide / vanadate rows, site in KdpB) (Escherichia coli K-12) (protein)
chain: MSRKQLALFEPTLVVQALKEAVKKLNPQAQWRNPVMFIVWIGSLLTTCISIAMASGAMPGNALFSAAISGWLWITVLFANFAEALAEGRSKAQANSLKGVKKTAFARKLREPKYGAAADKVPADQLRKGDIVLVEAGDIIPCDGEVIEGGASVDESAITGESAPVIRESGGDFASVTGGTRILSDWLVIECSVNPGETFLDRMIAMVEGAQRRKTPNEIALTILLIALTIVFLLATATLWPFSAWGGNAVSVTVLVALLVCLIPTTIGGLLSAIGVAGMSRMLGANVIATSGRAVEAAGDVDVLLLDKTGTITLGNRQASEFIPAQGVDEKTLADAAQLASLADETPEGRSIVILAKQRFNLRERDVQSLHATFVPFTAQSRMSGINIDNRMIRKGSVDAIRRHVEANGGHFPTDVDQKVDQVARQGATPLVVVEGSRVLGVIALKDIVKGGIKERFAQLRKMGIKTVMITGDNRLTAAAIAAEAGVDDFLAEATPEAKLALIRQYQAEGRLVAMTGDGTNDAPALAQADVAVAMNSGTQAAKEAGNMVDLDSNPTKLIEVVHIGKQMLMTRGSLTTFSIANDVAKYFAIIPAAFAATYPQLNALNIMCLHSPDSAILSAVIFNALIIVFLIPLALKGVSYKPLTASAMLRRNLWIYGLGGLLVPFIGIKVIDLLLTVCGLV
On to B1, for which the Km is 150 µM.

B2: KdpFABC (nucleotide / vanadate rows, site in KdpB) (Escherichia coli K-12; F232A) (protein)
chain: B1 chain with F232A
Consider B2, for which the Km (K+-uncoupled variant) worked out at 100 µM.

These data come from publication PMC8385062, “Deciphering ion transport and ATPase coupling in the intersubunit tunnel of KdpFABC” (Nature Communications, 2021).
